Results: the DeepSol protein solubility set

Assay: soluble on expression in E. coli; label from the status in PepcDB or PDB records

Q: With “MGISRDSWHKRYKTGATQPVPHKKRKFELGRPAANTKIGAHRVRLVRTRGGNEKYRALRLDSGNFSWASEQTTRKTRIVDTMYNATNNELVRTKTLVKGAIISVDAAPFRQWYEAHYALPLARKKNAKLSEEDNAILNKKRSHHTMKKYTERQKTAAVDALLIEQFNTGRLLARISSSPGQVGQANGYILEGKELDFYLRKIRAKKAK” as the sequence, how does the “soluble on expression in E. coli” value read?
A: The value was “not soluble”.

Q: For “MGSDKIHHHHHHMLFDTSPKDNRKDFFDREKEIEKLKGLRAPITLVLGLRRTGKSSIIKIGINELNLPYIYLDLRKFEERNYISYKDFLLELQKEINKLVKRLPSLLKALKNIQGIVIMGNEIKFNWNRKDRLSFANLLESFEQASKDNVIIVLDEAQELVKLRGVNLLPALAYAYDNLKRIKFIMSGSEMGLLYDYLRVEDPESPLFGRAFSTVELKPFSREEAIEFLRRGFQEADIDFKDYEVVYEKIGGIPGWLTYFGFIYLDNKNLDFAINQTLEYAKKLILKEFENFLHGREIARKRYLNIMRTLSKCGKWSDVKRALELEEGIEISDSEIYNYLTQLTKHSWIIKEGEKYCPSEPLISLAFS”, which “soluble on expression in E. coli” value is on record?
A: Its value is “not soluble”.

Q: With “GHHHHHHAIAENLYFQSDLFETSQIEKLLESLENYQPAFPDALVRYYLAKSGFQTDDIRAERLVALAAQKFVADVANDALNHVKLRQQSQATSKKSKENEVILTVEDLSKALEEYGVHLKKPPYYVDSPVVGVGSANLKKRKTEQVTSVKPEEKSLEGKEVFKEEPKEEDKELTQEPENV” as the sequence, how does the “soluble on expression in E. coli” value read?
A: The value was “soluble”.

Q: With “MIVETMTYQEIADEFKKDWERSIRHKITDCFGMANKYRRYILKEGKTDKWIRFKPIEFTSPRGNNCVIQFVSKGWADYKRNGLIFVLYMYYYKSEGLYAVMIAGDNFDEFSFYTPHLFDRYRERKLKDISKPKLQTMFDFFKTNATSRFNRVNNDKYANSIFSVCPNGVTLGSEISDKIIENRTYITFEMLKSDQVQDEEKLGTALKAYLDKQL” as the sequence, how does the “soluble on expression in E. coli” value read?
A: Its value is “not soluble”.

Q: With “MGSDKIHHHHHHMHFLDDSLLPENQEKLVIQVAPYGPQWLPGDSDDIPVTMDEQVQKAVDCYNAGATVLHVHVREADGKGSKRLSMFNEMLARLREAVPGMVLQVGGSISFAPENDNQAAKWLNDDTRHMLAELSPRPDQVTVAINTSQMNVMELMTEADVAGTSLTNPALQAAYRDMIVPSNPSWHVEHIKRLVANGIQPHFMLGNLTQLETVERLIRRGVYTGPLVLNYVAIGGGAAGLHPADMVEFARRTPDGAVLTVETLNRNVVPLNTMAIAMGLHVRVGIEDTLYGPDGKRATSVQQIEKMVNIARELNREIASGTDAHRIYQTGTRWSSTEETLNRLGMVPNRQPEQRGVPPRKAA” as the sequence, how does the “soluble on expression in E. coli” value read?
A: Its value is “not soluble”.

Q: Which “soluble on expression in E. coli” value does the source give for “MKRWIAIILIALMPAAQAGKAAKVTLVVDDVPVVQVLQTLAEQERQNLVVSPDVSGTLSLHLTDVPWKQALQTVVNSAGLVLRQEGNILHVHSQAWQKEHSARQDAERLRFQANLPLENRSISLQYADAGELAKAGEKLLSAKGTIMVDKRTNRLLLRDNRAALAELEKWVSQMDLPVAQVELAAHIVTINEKSLRELGVKWTLADATQAGSVGDVTTLSSDLSVAAATSRVGFNIGRINGRLLDLELSALEQKQLLDIIASPRLLASHLQPASIKQGSEIPYQVSSGESGATSVEFKEAVLGMEVTPTVLQKGRIRLKLHISQNVPGQVLQQADGEVLAIDKQEIETQVEVKSGETLALGGIFSRKNKSGSDSVPLLGDIPWLGQLFRHDGKEDERRELVVFITPRLVATELEHHHHHH” here?
A: Its value is “soluble”.

Q: Which “soluble on expression in E. coli” value does the source give for “MGSDKIHHHHHHMAAVGPRTGPGTGAEALALAAELQGEATCSICLELFREPVSVECGHSFCRACIGRCWERPGAGSVGAATRAPPFPLPCPQCREPARPSQLRPNRQLAAVATLLRRFSLPAAAPGEHGSQAAAARAAAARCGQHGEPFKLYCQDDGRAICVVCDRAREHREHAVLPLDEAVQEAKELLESRLRVLKKELEDCEVFRSTEKKESKELLKQMAAEQEKVGAEFQALRAFLVEQEGRLLGRLEELSREVAQKQNENLAQLGVEITQLSKLSSQIQETAQKPDLDFLQEFKSTLSR” here?
A: Its value is “not soluble”.

Q: For “MGSDKIHHHHHHMTQEMILANATLILAGETRTGCVKISDSVIADIADGSSVPAGAVDLEGDFLSPGLVELHTDNLERHIEPRPGVDWPHAAALVAHDAELASTGITTVFDAMRVGSIPSGKGRYIKYARQLASEMLDLRTKDMLKISHFLHLRAEVCSETLAEELAEFTAEDRVGLVSLMDHTPGQRQFRDIAKLEQYVKSKRGMSDEEFINHVAQLKDLRARFGDLHEATTVAEAARFGAVLASHDDTTADQVQTSAGHGIRLAEFPTTVEAARACHAHGIKVMMGAPNLIRGGSHSGNVAARELADLELLDIVSSDYIPAALLQAAVKLGEIWGDLARGMATVTAAPAASVGLTDRGVLEVGKRADLIRFRTREGVPMLRAVYSRGARVA”, which “soluble on expression in E. coli” value is on record?
A: The value was “not soluble”.

Q: For “MSEDHHDEEQFDSAESGAAATFPKQCSALRKNEHVMIRGRPCKIVEMSTSKTGKHGHAKVHMVAIDIFTTKKLEDICPSTHNMDVPVVKRREYILMSIEDGFCSLMDPESCELKDDLKMPEGDLGNTIREALEKDEGSVLVQVVAACGEEAILGYKISTKE”, which “soluble on expression in E. coli” value is on record?
A: Its value is “not soluble”.

Q: For “MNEQYSALRSNVSMLGKVLGETIKDALGEHILERVETIRKLSKSSRAGNDANRQELLTTLQNLSNDELLPVARAFSQFLNLANTAEQYHSISPKGEAASNPEVIARTLRKLKNQPELSEDTIKKAVESLSLELVLTAHPTEITRRTLIHKMVEVNACLKQLDNKDIADYEHNQLMRRLRQLIAQSWHTDEIRKLRPSPVDEAKWGFAVVENSLWQGVPNYLRELNEQLEENLGYKLPVEFVPVRFTSWMGGDRDGNPNVTADITRHVLLLSRWKATDLFLKDIQVLVSELSMVEATPELLALVGEEGAAEPYRYLMKNLRSRLMATQAWLEARLKGEELPKPEGLLTQNEELWEPLYACYQSLQACGMGIIANGDLLDTLRRVKCFGVPLVRIDIRQESTRHTEALGELTRYLGIGDYESWSEADKQAFLIRELNSKRPLLPRNWQPSAETREVLDTCQVIAEAPQGSIAAYVISMAKTPSDVLAVHLLLKEAGIGFAMPVAPLFETLDDLNNANDVMTQLLNIDWYRGLIQGKQMVMIGYSDSAKDAGVMAASWAQYQAQDALIKTCEKAGIELTLFHGRGGSIGRGGAPAHAALLSQPPGSLKGGLRVTEQGEMIRFKYGLPEITVSSLSLYTGAILEANLLPPPEPKESWRRIMDELSVISCDVYRGYVRENKDFVPYFRSATPEQELGKLPLGSRPAKRRPTGGVESLRAIPWIFAWTQNRLMLPAWLGAGTALQKVVEDGKQSELEAMCRDWPFFSTRLGMLEMVFAKADLWLAEYYDQRLVDKALWPLGKELRNLQEEDIKVVLAIANDSHLMADLPWIAESIQLRNIYTDPLNVLQAELLHRSRQAEKEGQEPDPRVEQALMVTIAGIAAGMRNTG”, which “soluble on expression in E. coli” value is on record?
A: Its value is “soluble”.

Q: With “MGSSHHHHHHGKTIFVIVPTNEEQVAFLEALAKQDELNFDWQNPPTEPGQPVVILIPSDMVEWFLEMLKAKGIPFTVYVEEGGSENLYFQGGGGGGRRGFTETVSPVAGFHIFTLFLLRELIEPWSQGQVRAQAARAREAQRRSFTTDIAMQYREKLD” as the sequence, how does the “soluble on expression in E. coli” value read?
A: Its value is “soluble”.

Q: Which “soluble on expression in E. coli” value does the source give for “MGSDKIHHHHHHMLKKYLISLDKDIQRRELFFSQKNTEDFQVFSAINTMQKDWDELAAIFNIEQFKAHYFRNVTKGEIGCTLSHLSVYQKIVEDNDIAEDSYALVCEDDALFHSDFQQNLTALLSEKLEAEIILLGQSKINDFNDFDLEINYPTTFSFLCKKTGDVNYAFPYKSYFAGTVGYLIKKSAARRFIQQISQNKPFWLADDFLLFEQNFNIRNKVVRPLIVIENPVLISNLESVRGSLSNNLLKKLMKYPLKKIFAIKKNLAN” here?
A: The value was “not soluble”.

Q: Which “soluble on expression in E. coli” value does the source give for “MGSDKIHHHHHHMVLNINSFYKNCRGEFMRAVFIYHKNNQRMEKFYKNLLNEPDFCRICDDCYNCRGNWTFKNNVKNIVIEEVYEEFVDNPYDYLPELPEGDICIAQLHEDLLYELPLLLKEKGYKALIVPSETPHDLSLALRRDLKRVCSNYNIEFENPKPFCSLEKKEGNEYINKFIDYFKIGKPELEIEVENGLIKDVKVKISAPCGETYYIAKRLKGKAIDDLKEEIANAHHNYPCLASMEMDKELGDTILHKAGYIAFEVVEKALKK” here?
A: Its value is “not soluble”.

Q: For “SLKNRRVGKKLLMTGGGRCNVTNNRPAEEIISFIPGNGKFLYSAFSQFDNYDIMNFFESNGIHLKEEDHGRMFPVTDKSKSIVDALFNRINELGVTVFTKTQVTKLLRKDDQIIGVETELEKIYAPCVVLTTGGRTYPSTGATGDGYKLAKKMGHTISPLYPTESPIISEEPFILDKTLQGLSLQDVNLTVLNQKGKPLVNHQMDMLFTHFGISGPAALRCSSFINQELTRNGNQPVTVALDVFPTKSFEEVPAKQLTEKQRLSFVELLKDFQFTVTKTLPLEKSFVTGGGISLKEVTPKTMESKLVNGLFFAGELLDINGYTGGYNVTAAFVTGHVAGSHAAEIAEYTYLPIEEV”, which “soluble on expression in E. coli” value is on record?
A: Its value is “soluble”.

Q: For “MRLPTEAHLRQHVRVIDSMSCNREKVRDLRRQIPSFDCVPGCHDCCGPVTTSSEEMSRLPRKTVAEQEAAFNELNCVHLGPQGCTVYDERPLICRLFGTTASLPCPNGRRPVELIHPRAEKQIHEYMASTRQVLVLEHHHHHH”, which “soluble on expression in E. coli” value is on record?
A: Its value is “not soluble”.

Q: Which “soluble on expression in E. coli” value does the source give for “AAAMKLAYWMYAGPAHIGTLRIASSFKNVHGIMHAPLGDDYFNVMRSMLERERDFTPVTASIVDRHVLARGSQEKVVDNIIRKDTEEHPDLIVLTPTCTSSILQEDLQNFVRRASLSTTADVLLADVNHYRVNELQAADRTLEQIVQFYIDKARRQGTLGTSKTPTPSVNIIGITTLGFHNQHDCRELKQLMADLGIQVNLVIPAAATVHDLQRLPQAWFNLVPYREIGGLTAQYLEREFGQPSVRITPMGVVETARCIRAIQGVLNAQGAGVNYEAFIEQQTREVSQAAWFSRSIDCQNLTGKKAVVFGDNTHAAAMTKILSREMGIHVVWAGTYCKYDADWFRAEVAGFCDEVLITDDHTVVGDAIARVEPAAIFGTQMERHVGKRLNIPCGVIAAPIHIQDFPVGYRPFLGYEGTNQLVDLIYNSFTLGMEDHLLEIFGGHDTKAVIHKGLSADSDLTWTAAGLAELNKIPGFVRGKVKRNTEKFAREQGISEITVEVLYAAKEAVGA” here?
A: Its value is “soluble”.

Q: For “TSITPSSQDICRICHCEGDDESPLITPCHCTGSLHFVHQACLQQWIKSSDTRCCELCKYEFIMETKL”, which “soluble on expression in E. coli” value is on record?
A: Its value is “soluble”.

Q: For “MHSTPKRVLLAGATGLTGEHLLDRILSEPTLAKVIAPARKALAEHPRLDNPVGPLAELLPQLDGSIDTAFCCLGTTIKEAGSEEAFRAVDFDLPLAVGKRALEMGARHYLVVSALGADAKSSIFYNRVKGELEQALQEQGWPQLTIARPSLLFGPREEFRLAEILAAPIARILPGKYHGIEACDLARALWRLALEEGKGVRFVESDELRKLGK”, which “soluble on expression in E. coli” value is on record?
A: Its value is “soluble”.

Q: For “MSEITLGKYLFERLKQVNVNTVFGLPGDFNLSLLDKIYEVEGMRWAGNANELNAAYAADGYARIKGMSCIITTFGVGELSALNGIAGSYAEHVGVLHVVGVPSISAQAKQLLLHHTLGNGDFTVFHRMSANISETTAMITDIATAPAEIDRCIRTTYVTQRPVYLGLPANLVDLNVPAKLLQTPIDMSLKPNDAESEKEVIDTILVLDKDAKNPVILADACCSRHDVKAETKKLIDLTQFPAFVTPMGKGSIDEQHPRYGGVYVGTLSKPEVKEAVESADLILSVGALLSDFNTGSFSYSYKTKNIVEFHSDHMKIRNATFPGVQMKFVLQKLLTTIADAAKGYKPVAVPARTPANAAVPASTPLKQEWMWNQLGNFLQEGDVVIAETGTSAFGINQTTFPNNTYGISQVLWGSIGFTTGATLGAAFAAEEIDPKKRVILFIGDGSLQLTVQEISTMIRWGLKPYLFVLNNDGYTIQKLIHGPKAQYNEIQGWDHLSLLPTFGAKDYETHRVATTGEWDKLTQDKSFNDNSKIRMIEVMLPVFDAPQNLVEQAKLTAATNAKQ”, which “soluble on expression in E. coli” value is on record?
A: The value was “soluble”.
